The text below walks through data of patent US20050260565A1 (ICOS, published 2005).

The target in experiment [1] is T1, FLAG-tagged 88C receptor (human, UniProt P51681 1-352).
T1 sequence: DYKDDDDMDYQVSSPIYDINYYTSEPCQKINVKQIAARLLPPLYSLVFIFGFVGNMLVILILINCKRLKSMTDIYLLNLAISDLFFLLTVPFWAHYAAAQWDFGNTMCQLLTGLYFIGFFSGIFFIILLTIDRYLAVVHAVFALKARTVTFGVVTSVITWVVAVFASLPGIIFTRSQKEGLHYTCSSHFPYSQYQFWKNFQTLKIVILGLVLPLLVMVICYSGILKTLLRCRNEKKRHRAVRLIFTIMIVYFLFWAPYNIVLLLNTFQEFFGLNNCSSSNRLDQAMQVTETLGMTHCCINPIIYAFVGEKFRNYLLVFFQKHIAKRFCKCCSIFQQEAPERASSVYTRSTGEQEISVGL
Put plainly: competition of the unlabeled ligand with 1.5 nM 125I-MIP-1β on HEK-293 cells expressing FLAG-tagged 88C. The source says: (§1) Another assay for receptor interaction with chemokines was a modification of the binding assay described by Ernst et al., J. Immunol. 152:3541-3549 (1994). MIP-1β as labeled using the Bolton and Hunter reagent (di-iodide, NEN, Wilmington, Del.), according to the manufacturer's instructions. Unconjugated iodide was separated from labeled protein by elution using a PD-10 column (Pharmacia) equilibrated with PBS and BSA (1% w/v). The specific activity was typically 2200 Ci/mmole. Equilibrium binding was performed by adding ¹²⁵I-labeled ligand with or without a 100-fold excess of unlabeled ligand, to 5×10⁵ HEK-293 cells transfected with 88C tagged with the FLAG epitope in polypropylene tubes in a total volume of 300 μl (50 mM HEPES pH 7.4, 1 mM CaCl₂, MgCl₂, 0.5% BSA) and incubating for 90 minutes at 27° C. with shaking at 150 rpm. The cells were collected, using a Skatron cell harvester (Skatron Instruments Inc., Sterling, Va.), on glass fiber filters presoaked in 0.3% polyethyleneimine and 0.2% BSA. After washing, the filters were removed and bound ligand was quantitated by counting gamma emissions. Ligand binding by competition with unlabeled ligand was determined by incubation of 5×10⁵ transfected cells (as above) with 1.5 nM of radiolabeled ligand and the indicated concentrations of unlabeled ligand. The samples were collected, washed and counted as above. The data was analyzed using the curve-fitting program Prism (GraphPad Inc., San Diego, Calif.) and the iterative non-linear regression program, LIGAND (PM220).
In equilibrium binding assays, 88C receptor bound radiolabeled MIP-1β in a specific and saturable manner.

The target of experiment [2] is T1, FLAG-tagged 88C receptor. As to the kind of experiment: cell-based or functional assay.
Experiment [3] deals with T1, FLAG-tagged 88C receptor. Put plainly: equilibrium binding of 125I-MIP-1β to HEK-293 cells expressing FLAG-tagged 88C, Scatchard analysis.
Source text: as §1, with “The cells were collected, using a Skatron cell harvester (Skatron Instruments Inc., Sterling, Va.), on glass fiber filters presoaked in 0.3% polyethyleneimine and 0.2% BSA.” left out, “(PM220). […]” for “(PM220).”

B1: MIP-1α (ligand, UniProt P10147 24-92, looked up)
chain: SLAADTPTACCFSYTSRQIPQNFIADYFETSSQCSKPGVIFLTKRSRQVCADPSEEWVQKYVSDLELSA
For the molecule B1, the IC50 in the experiment with FLAG-tagged 88C receptor [1] worked out at 7.4 nM. Besides, in the experiment with FLAG-tagged 88C receptor [2], the “EC50 of inositol phosphate formation (dose-response curves)” value (shortened to “EC50 of inositol phosphate formation”) was determined as 22 nM.

B2: RANTES (Regulated on Activation, Normal T Expressed and Secreted) (ligand, UniProt P13501 24-91, looked up)
chain: SPYSSDTTPCCFAYIARPLPRAHIKEYFYTSGKCSNPAVVFVTRKNRQVCANPEKKWVREYINSLEMS
Molecule B2 had an IC50 with FLAG-tagged 88C receptor [1] of 6.9 nM. Besides, the “EC50 of inositol phosphate formation” value with FLAG-tagged 88C receptor [2] was determined as 1 nM.

B3: MIP-1β (ligand, UniProt P13236 24-92, looked up)
chain: APMGSDPPTACCFSYTARKLPRNFVVDYYETSSLCSQPAVVFQTKRSKQVCADPSESWVQEYVYDLELN
modifications: ends and bridges not checked; also: 125I label (Bolton and Hunter reagent) where used as radiolabeled ligand
With B3, in the experiment with FLAG-tagged 88C receptor [3], binding was characterised by a dissociation constant (Kd) of 1.6 nM. In the experiment with FLAG-tagged 88C receptor [1], this molecule yielded a concentration for half-maximal inhibition (IC50) of 7.4 nM. Besides, in the experiment with FLAG-tagged 88C receptor [2], the “EC50 of inositol phosphate formation” value worked out at 6 nM.
